Blank lines part the entries; values can stand above or below the substance they belong to.
Key:
Assay in all cases: SEC + other: SDS-PAGE
[1] = target: Δ(185-243) WT apoA-I (globular domain, residues 1-184, of human apolipoprotein A-I) (human)
[2] = target: Δ(185-243) Glu34Lys apoA-I (globular domain, residues 1-184) (human)
[3] = target: Δ(185-243) Leu159Arg apoA-I (globular domain, residues 1-184) (human)
[4] = target: Δ(185-243) Phe71Tyr apoA-I (globular domain, residues 1-184) (human)

stoichiometry N [1]: 2
Substance: Δ(185-243) WT apoA-I (globular domain, residues 1-184, of human apolipoprotein A-I) (domain or fragment)

stoichiometry N [2]: 2
Substance: Δ(185-243) Glu34Lys apoA-I (globular domain, residues 1-184) (domain or fragment)

stoichiometry N [3]: 2
Substance: Δ(185-243) Leu159Arg apoA-I (globular domain, residues 1-184) (domain or fragment)

stoichiometry N [4]: 2
Substance: Δ(185-243) Phe71Tyr apoA-I (globular domain, residues 1-184) (domain or fragment)

From publication doi:10.1101/354001
